Positions count from the first letter of the chain named. Numbers in names are those of the source.
B1: Vps1 (yeast dynamin), wild type, recombinant His tag fusion (natural protein, yeast (budding yeast), UniProt P21576 1-704, looked up)
chain: MDEHLISTINKLQDALAPLGGGSQSPIDLPQITVVGSQSSGKSSVLENIVGRDFLPRGTGIVTRRPLVLQLINRRPKKSEHAKVNQTANELIDLNINDDDKKKDESGKHQNEGQSEDNKEEWGEFLHLPGKKFYNFDEIRKEIVKETDKVTGANSGISSVPINLRIYSPHVLTLTLVDLPGLTKVPVGDQPPDIERQIKDMLLKYISKPNAIILSVNAANTDLANSDGLKLAREVDPEGTRTIGVLTKVDLMDQGTDVIDILAGRVIPLRYGYIPVINRGQKDIEHKKTIREALENERKFFENHPSYSSKAHYCGTPYLAKKLNSILLHHIRQTLPEIKAKIEATLKKYQNELINLGPETMDSASSVVLSMITDFSNEYAGILDGEAKELSSQELSGGARISYVFHETFKNGVDSLDPFDQIKDSDIRTIMYNSSGSAPSLFVGTEAFEVLVKQQIRRFEEPSLRLVTLVFDELVRMLKQIISQPKYSRYPALREAISNQFIQFLKDATIPTNEFVVDIIKAEQTYINTAHPDLLKGSQAMVMVEEKLHPRQVAVDPKTGKPLPTQPSSSKAPVMEEKSGFFGGFFSTKNKKKLAALESPPPVLKATGQMTERETMETEVIKLLISSYFSIVKRTIADIIPKALMLKLIVKSKTDIQKVLLEKLYGKQDIEELTKENDITIQRRKECKKMVEILRNASQIVSSV
notes: Vps1, dynamin-like protein of budding yeast; wild-type VPS1 expressed as a His tag fusion; Template plasmids pKA677 and pKA850 are named; Forms oligomeric rings by EM; also called wild-type Vps1; yeast dynamin Vps1; source: E. coli (C43), purified
B2: Vps1 RR457,458EE, recombinant His tag fusion (natural protein, yeast (budding yeast), UniProt P21576 1-704, looked up)
chain: B1 chain with R457E, R458E
notes: Vps1 of budding yeast with the charge-switch mutations R457E and R458E in a helix of the stalk domain; Made by site-directed mutagenesis of template plasmids pKA677 and pKA850; also called RR-EE; Vps1 RR-EE; source: E. coli (C43), purified

Tests used:
[1] = molecular target: the molecule itself; assay: negative-stain electron microscopy; purified Vps1 imaged directly, adsorbed on carbon-coated grids, negative staining with uranyl formate; oligomeric rings
[2] = molecular target: rabbit muscle actin (F-actin) (rabbit, UniProt P68135 1-377); assay: co-sedimentation; high-speed F-actin pelleting: purified Vps1 (supernatant of a 90,000 x g pre-spin) mixed with pre-polymerized yeast or rabbit muscle F-actin (10% KME pH 8), 15 min, spun 90,000 x g; supernatant and pellet by SDS-PAGE, densitometry; KD from a single site binding curve over a range of Vps1 concentrations; 1.5 uM Vps1 with 3 uM F-actin in Figure 1A; conditions: both partners purified

Binder | binding result [1] | Kd [2] [nM]
B1 | binds | 920 ± 310
B2 | binds | –

Reference: paper PMC4386032, “A Dynamin-Actin Interaction Is Required for Vesicle Scission during Endocytosis in Yeast” (Current Biology, 2015)
